From patent publication US20230212293A1 (published 2023)

B1: Anti-PD-1 IgG #1 (antibody, V domains shown)
VH: EVQLQESGPGLVKPSQTLSLTCTVTGYSITSDYAWNWIRQPPGKKLEWMGYINYSGSTSYNPSLKSRVTISRDTSKNQFSLKLSSVTAADTAVYYCARWIGSSAWYFDVWGQGTLVTVS
VL: DVLMTQTPLSLSVTPGQPASISCRSGQNIVHSNGNTYLEWYLQKPGQSPKLLIYKVSNRFFGVPDRISGSGSGTDFTLKISRVEAEDVGVYFCFQGSHVPFTFGQGTKLEIK
notes: IgG format; In the 'IgG/xlink' columns it was crosslinked 1:1 with goat anti-human IgG F(ab')2 fragment; also called Antibody #1 (IgG format)
B2: Anti-PD-1 Hexameric IgM (IgHM) #1 (antibody, V domains shown)
VH: B1 VH
VL: B1 VL
B3: Anti-PD-1 IgM #1 (antibody)
VH: B1 VH
VL: B1 VL
chain: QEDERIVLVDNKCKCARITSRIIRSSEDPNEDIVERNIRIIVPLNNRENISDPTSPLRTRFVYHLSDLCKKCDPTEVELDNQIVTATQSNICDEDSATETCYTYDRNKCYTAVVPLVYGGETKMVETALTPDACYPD
notes: also called Antibody #1 (IgM format); pentameric IgM #1
B4: Anti-PD-1 IgG #2 (antibody, V domains shown)
VH: QVQLQESGPGVVKPSGTLSLTCAISGGSIGSGGSIRSTRWWSWVRQSPGKGLEWIGEIYHSGSTNYNPSLKSRVTISLDKSRNHFSLRLNSVTAADTAVYYCARQDYGDSGDWYFDLWGKGTMVTVSS
VL: NFMLTQPHSVSESPGKTVTISCTRSSGSIASNSVQWYQQRPGSSPTTVIYEDNQRPSGVPDRFSGSIDSSSNSASLTVSGLKTEDEADYYCQSSDSSAVVFGSGTKLTVL
notes: IgG format; In the 'IgG/xlink' columns it was crosslinked 1:1 with goat anti-human IgG F(ab')2 fragment; also called Antibody #2 (IgG format); #2 IgG
B5: Anti-PD-1 Hexameric IgM (IgHM) #2 (antibody, V domains shown)
VH: B4 VH
VL: B4 VL
B6: Anti-PD-1 IgM #2 (antibody)
VH: B4 VH
VL: B4 VL
chain: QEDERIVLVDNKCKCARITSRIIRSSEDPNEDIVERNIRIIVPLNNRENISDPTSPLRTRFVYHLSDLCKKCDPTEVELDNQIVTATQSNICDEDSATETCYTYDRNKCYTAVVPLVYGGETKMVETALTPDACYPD
notes: also called Antibody #2 (IgM format); pentameric IgM #2
B7: Anti-PD-1 IgG #4 (antibody, V domains shown)
VH: QVQLVQSGSELKKPGASVKVSCKASGYTFTDYSMHWVRQAPGQGLEWMGWINIETGEPTYAQGFTGRFVFSLDTSVSTAYLQISSLKAEDTAVYFCARDYYGTYFYAMDYWGQGTLVTVSS
VL: EIVLTQSPATLSLSPGERATLSCTASSSVSSSYLHWYQQKPGLAPRLLIYSTSNLASGIPDRFSGSGSGTDYTLTISRLEPEDFAVYYCHQYHRSPLTFGQGTKLEIK
B8: Anti-PD-1 IgM #4 (antibody)
VH: B7 VH
VL: B7 VL
chain: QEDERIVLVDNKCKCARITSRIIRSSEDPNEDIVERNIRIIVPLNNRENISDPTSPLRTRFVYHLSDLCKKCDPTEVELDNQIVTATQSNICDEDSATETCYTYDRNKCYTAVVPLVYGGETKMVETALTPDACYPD
B9: Anti-PD-1 IgG #3 (antibody, V domains shown)
VH: QVQLVQSGAEVKKPGASVKVSCKVSGYSLSKYDMSWVRQAPGKGLEWMGIIYTSGYTDYAQKFQGRVTMTEDTSTDTAYMELSSLRSEDTAVYYCATGNPYYTNGFNSWGQGTLVTVSS
VL: DIQMTQSPSSLSASVGDRVTITCQASQSPNNLLAWYQQKPGKAPKLLIYGASDLPSGVPSRFSGSGSGTDFTLTISSLQPEDFATYYCQNNYYVGPVSYAFGGGTKVEIK
B10: Anti-PD-1 Hexameric IgM (IgHM) #3 (antibody, V domains shown)
VH: B9 VH
VL: B9 VL
B11: Anti-PD-1 IgM #3 (antibody)
VH: B9 VH
VL: B9 VL
chain: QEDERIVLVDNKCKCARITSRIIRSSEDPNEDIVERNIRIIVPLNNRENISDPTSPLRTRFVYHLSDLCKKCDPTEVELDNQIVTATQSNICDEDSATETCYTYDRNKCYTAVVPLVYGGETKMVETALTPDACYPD
B12: Anti-PD-1 pentameric IgM #5 (antibody)
VH: QVQLVESGGGVVQPGRSLRLDCKASGITFSNSGMHWVRQAPGKGLEWVAVIWYDGSKRYYADSVKGRFTISRDNSKNTLFLQMNSLRAEDTAVYYCATNDDYWGQGTLVTVSS
VL: EIVLTQSPATLSLSPGERATLSCRASQSVSSYLAWYQQKPGQAPRLLIYDASNRATGIPARFSGSGSGTDFTLTISSLEPEDFAVYYCQQSSNWPRTFGQGTKVEIK
chain: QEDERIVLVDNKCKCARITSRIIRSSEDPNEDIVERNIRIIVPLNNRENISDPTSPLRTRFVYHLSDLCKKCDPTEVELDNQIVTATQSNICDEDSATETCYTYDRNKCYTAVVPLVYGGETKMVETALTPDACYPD

Tests used:
[1] = target: T1, PD-1 on PD-1 reporter Jurkat cells (PATHHUNTER Checkpoint Signaling Assay) (UniProt Q15116 25-288); test: cell-based or functional assay
[2] = target: T2, Human PD-1 overexpressed on HEK293 cells (human, UniProt Q15116 25-288); test: flow cytometry on HEK293 cells overexpressing human PD-1, PE anti-human IgG detection
T2 construct: whole, on cells
Method: (§1) HEK293 cells were modified to overexpress human or mouse PD-1. Cells were expanded in puromycin-containing media to maintain selection, and aliquoted to 96 well V-bottom plates for antibody staining and flow cytometric analysis. Anti-PD-1 antibodies were added to cells in BD stain buffer with fetal bovine serum (BD Biosciences, cat. #554656) and incubated on ice for 20 minutes. Cells were then washed, and R-phycoerythrin (PE)-labeled anti-human IgG or anti-human IgM secondary antibodies were then added and incubated for an additional 20 minutes. Data were collected on a Beckman Coulter CYTOFLEX® cytometer and analyzed in FLOWJO™.

[3] = target: T1, PD-1 on PD-1 reporter Jurkat cells …; test: cell-based or functional assay; remark: listed apart in the source
[4] = target: T1, PD-1 on PD-1 reporter Jurkat cells …; test: cell-based or functional assay; remark: listed apart in the source
[5] = target: T3, Recombinant mouse PD-1 extracellular domain (with an immunoglobulin Fc region or a His tag) (mouse, UniProt Q02242 25-169); test: ELISA, plate-coated recombinant PD-1 extracellular domain
T3 construct: extracellular domain; Coated on ELISA plates; not shown: either an immunoglobulin Fc region or a His tag
T3 sequence (looked up): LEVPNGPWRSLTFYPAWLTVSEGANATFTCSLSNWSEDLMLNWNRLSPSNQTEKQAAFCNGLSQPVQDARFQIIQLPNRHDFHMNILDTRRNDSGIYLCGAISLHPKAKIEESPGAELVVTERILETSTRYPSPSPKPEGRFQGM
Method: (§2) An enzyme-linked immunosorbent assay (ELISA) was performed to assess the binding of anti-PD-1 antibodies to human, cynomolgus monkey, or mouse PD-1. Recombinant proteins containing the extracellular domain of PD-1 together with either an immunoglobulin Fc region or a His tag were used to coat wells of standard 96 well ELISA plates by overnight incubation at 4° C. Unbound recombinant protein was removed, Pierce SUPERBLOCK™ T20 was added, and plates were incubated for 10 minutes at room temperature with shaking. Plates were washed with phosphate buffered saline-TWEEN-20 (PBST), and anti-PD-1 antibodies were added in phosphate buffered saline (PBS) with 1% bovine serum albumin (BSA) and incubated for one hour at room temperature with shaking. Plates were then washed in PBST and incubated with horse radish peroxidase (HRP)-conjugated secondary antibodies in F(ab′)2 directed to either human IgG or human IgM. After one hour, plates were washed again with PBST, signal was developed with SUPERSIGNAL™ ELISA Pico substrate, and an ENVISION® luminometer (PerkinElmer) was used to record signal. Data were analyzed with […] PRISM®.

[6] = target: T4, Recombinant human PD-1 extracellular domain (with an immunoglobulin Fc region or a His tag) (human, UniProt Q15116 25-170); test: ELISA, plate-coated recombinant PD-1 extracellular domain, HRP anti-human IgG detection
T4 construct: extracellular domain; Coated on ELISA plates; not shown: either an immunoglobulin Fc region or a His tag
Method: as §2

[7] = target: T1, PD-1 on PD-1 reporter Jurkat cells …; test: cell-based or functional assay; remark: listed apart in the source
[8] = target: T5, Mouse PD-1 overexpressed on HEK293 cells (mouse, UniProt Q02242 25-288); test: flow cytometry on HEK293 cells overexpressing mouse PD-1
T5 construct: whole, on cells
T5 sequence (looked up): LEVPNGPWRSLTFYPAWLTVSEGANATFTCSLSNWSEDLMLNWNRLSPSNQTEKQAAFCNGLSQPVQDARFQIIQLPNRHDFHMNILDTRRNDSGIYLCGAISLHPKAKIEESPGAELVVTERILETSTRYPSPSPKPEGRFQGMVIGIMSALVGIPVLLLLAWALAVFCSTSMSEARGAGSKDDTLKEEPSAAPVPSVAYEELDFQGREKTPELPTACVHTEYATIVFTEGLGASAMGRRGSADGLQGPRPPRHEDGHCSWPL
Method: as §1

[9] = target: T2, Human PD-1 overexpressed on HEK293 cells; test: flow cytometry on HEK293 cells overexpressing human PD-1, PE anti-human IgM detection
Method: as §1

[10] = target: T4, Recombinant human PD-1 extracellular …; test: ELISA, plate-coated recombinant PD-1 extracellular domain, HRP anti-human IgM detection
Method: as §2

T2 sequence (Q15116 25-288): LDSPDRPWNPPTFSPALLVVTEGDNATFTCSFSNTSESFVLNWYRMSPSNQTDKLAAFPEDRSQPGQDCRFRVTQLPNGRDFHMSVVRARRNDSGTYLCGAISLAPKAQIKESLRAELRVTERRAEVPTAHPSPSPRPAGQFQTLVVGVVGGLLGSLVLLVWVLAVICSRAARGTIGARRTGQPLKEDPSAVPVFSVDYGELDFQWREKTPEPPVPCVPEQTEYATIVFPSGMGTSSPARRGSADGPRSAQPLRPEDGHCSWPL
T1 sequence (Q15116 25-288): as above
T4 sequence (Q15116 25-170): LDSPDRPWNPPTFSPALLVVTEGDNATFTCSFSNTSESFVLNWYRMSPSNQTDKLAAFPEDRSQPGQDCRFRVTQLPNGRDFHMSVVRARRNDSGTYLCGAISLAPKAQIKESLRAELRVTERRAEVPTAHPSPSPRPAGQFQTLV

Binder | PD-1 Signaling EC50 (second incubation at 4 C), IgG [1] | PD-1 Signaling EC50 (second incubation at 4 C), IgG/xlink (crosslinked IgG) [1] | binding result [5] | binding result [8] | PD-1 Signaling EC50 (second incubation at 4 C), IgM [1] | PD-1 Signaling EC50 (method of Example 8), IgM [4] | other results
B1 | 29 nM | 4.4 nM | no binding | no binding |  |  | EC50 [2]: 59 nM; PD-1 Signaling EC50, IgG/xlink (IgG crosslinked 1:1 with goat anti-human IgG F(ab')2 fragment) [3]: 0.65 nM; PD-1 Signaling EC50 (method of Example 8), IgG [4]: 85 nM; PD-1 Signaling EC50 (method of Example 8), IgG/xlink (crosslinked IgG) [4]: 1.8 nM; EC50 [6]: 1.5 nM; PD-1 Signaling EC50 (PATHHUNTER Checkpoint Signaling Assay, reporter Jurkat cells), IgG [7]: 65 nM
B2 |  |  |  |  |  |  | PD-1 Signaling EC50 (method of Example 8), IgHM [4]: 0.07 nM
B3 |  |  | no binding | no binding | 0.031 nM | 0.057 nM | EC50 [9]: 0.2 nM; EC50 [10]: 0.087 nM; PD-1 Signaling EC50 (PATHHUNTER Checkpoint Signaling Assay, reporter Jurkat cells), IgM [7]: 0.014 nM
B4 | 5.9 nM | 2.1 nM | no binding | no binding |  |  | EC50 [2]: 2.9 nM; PD-1 Signaling EC50, IgG/xlink (IgG crosslinked 1:1 with goat anti-human IgG F(ab')2 fragment) [3]: 4.8 nM; PD-1 Signaling EC50 (method of Example 8), IgG [4]: 22 nM; PD-1 Signaling EC50 (method of Example 8), IgG/xlink (crosslinked IgG) [4]: 3.8 nM; EC50 [6]: 0.6 nM
B5 |  |  |  |  |  |  | PD-1 Signaling EC50 (method of Example 8), IgHM [4]: 0.4 nM
B6 |  |  | no binding | no binding | 0.1 nM | 0.29 nM | EC50 [10]: 0.35 nM; PD-1 Signaling EC50 (PATHHUNTER Checkpoint Signaling Assay, reporter Jurkat cells), IgM [7]: 0.72 nM
B7 | 0.89 nM | 1.7 nM |  |  |  |  | 
B8 |  |  |  |  | 1.1 nM |  | 
B9 | 0.19 nM | 0.19 nM |  |  |  |  | PD-1 Signaling EC50 (method of Example 8), IgG [4]: 0.26 nM; PD-1 Signaling EC50 (method of Example 8), IgG/xlink (crosslinked IgG) [4]: 0.79 nM
B10 |  |  |  |  |  |  | PD-1 Signaling EC50 (method of Example 8), IgHM [4]: 0.2 nM
B11 |  |  |  |  | 0.065 nM | 0.13 nM | 
B12 |  |  |  |  |  | 0.03 nM | 
